Residue numbers refer to the chain shown, from its start. Names and notes keep the numbering of the source.

B1: I283T-N285P-N287T-Q290E-S322T-N388M-K394R-i424aA-C430A-L432F-L434W-S436N-dG462 (protein)
chain: MFLKSLREQINLLKRQGDLRIINRPVDSYLEAAAIIRRSTETKAPVPLMTNIKGYPGCSIVGGLAALSSNPEYPLSRVAMSLGLSTTASAQSIVQYLIDGLKKTPYLPVEIDSNSAPCKQNILRGEDASLAHFPIPQVHQHDGNRYVNTWGVFIVESPDGQWCNWSIQRVQYLNDRQMIALVFPSQHISDIWEEWVKIGKPMPYALVQGCEPIVPYIAGLPLLERNVNEAEYIGALYGKGIEVVKCETHDLRVPASSEVVIEGYFAITREGVEGPFGEFAGYTPPETSLEPILSITAISWQDDPIWPVVAEGKPVDEYHTCTGIGDAAAIQNVLLTANLPVSFVWVPLYSACHLMIVSINRHWRQTHPDLTSEQLTKKVGDVIHQTRMSIKLPRIVVLDDDVDPADTESLLWALATRIHPERKRYFYESAIFPWLNCYSEEERHNRKGKRVIIDALLPENHGAISSFDYAYPDDIKQRVLMHWETDFSHD
B2: I283T-N285P-N287T-Q290E-S322T-N388M-K394R-i424aS-C430A-L432F-L434W-S436N-dG462 (protein)
chain: B1 chain
B3: I283T-N285P-N287T-Q290E-S322T-N388M-K394R-C430A-i430aQ-L432F-L434W-S436N-dG462 (protein)
chain: B1 chain
B4: I283T-N285P-N287T-Q290E-S322T-N388M-K394R-C430A-i430aR-L432F-L434W-S436N-dG462 (protein)
chain: B1 chain
B5: I283T-N285P-N287T-Q290E-S322T-N388M-K394R-i424aD-C430A-L432F-L434W-S436N-dG462 (protein)
chain: B1 chain
B6: I283T-N285P-N287T-Q290E-S322T-N388M-K394R-i426aL-C430A-L432F-L434W-S436N-dG462 (protein)
chain: B1 chain
B7: I283T-N285P-N287T-Q290E-S322T-N388M-K394R-C430A-i430aI-L432F-L434W-S436N-dG462 (protein)
chain: B1 chain
B8: I283T-N285P-N287T-Q290E-S322T-N388M-K394R-C430A-i430aS-L432F-L434W-S436N-dG462 (protein)
chain: B1 chain
B9: I283T-N285P-N287T-Q290E-S322T-N388M-K394R-C430A-i430aG-L432F-L434W-S436N-dG462 (protein)
chain: B1 chain
B10: I283T-N285P-N287T-Q290E-S322T-N388M-K394R-i424aW-C430A-L432F-L434W-S436N-dG462 (protein)
chain: B1 chain
B11: I283T-N285P-N287T-Q290E-S322T-N388M-K394R-i424aL-C430A-L432F-L434W-S436N-dG462 (protein)
chain: B1 chain
B12: I283T-N285P-N287T-Q290E-S322T-N388M-K394R-C430A-L432F-L434W-S436N-i438aD-dG462 (protein)
chain: B1 chain
B13: I283T-N285P-N287T-Q290E-S322T-N388M-K394R-C430A-i430aN-L432F-L434W-S436N-dG462 (protein)
chain: B1 chain
B14: I283T-N285P-N287T-Q290E-S322T-N388M-K394R-i429aN-C430A-L432F-L434W-S436N-dG462 (protein)
chain: B1 chain
B15: I283T-N285P-N287T-Q290E-S322T-N388M-K394R-C430A-i430aH-L432F-L434W-S436N-dG462 (protein)
chain: B1 chain
B16: I283T-N285P-N287T-Q290E-S322T-N388M-K394R-C430A-L432F-L434W-S436N-i443aR-dG462 (protein)
chain: B1 chain
B17: I283T-N285P-N287T-Q290E-S322T-N388M-K394R-C430A-i430aC-L432F-L434W-S436N-dG462 (protein)
chain: B1 chain
B18: N388M-K394R-S429D-C430N-L432F-L434W-S436N (protein)
chain: B1 chain with T283I, P285N, T287N, E290Q, T322S, S429D, A430N
B19: I283T-N285P-N287T-Q290E-S322T-N388M-K394R-C430A-L432F-L434W-S436N-i443aV-dG462 (protein)
chain: B1 chain
B20: I283T-N285P-N287T-Q290E-S322T-N388M-K394R-C430A-i430aL-L432F-L434W-S436N-dG462 (protein)
chain: B1 chain
B21: I283T-N285P-N287T-Q290E-S322T-N388M-K394R-C430A-L432F-L434W-S436N-i443aL-dG462 (protein)
chain: B1 chain
B22: S322T-N388M-K394R-C430N-L432F-L434W-S436N (protein)
chain: B1 chain with T283I, P285N, T287N, E290Q, A430N

The subject of this experiment is 3-methylcrotonic acid. It counts as biochemical, Yersinia frederiksenii. Also on record: key: “+” representing a low increase in activity; “++++” representing a high increase in activity.
Turning to B1, the “Activity relative to WT” value is “++++”.
As for B2, the “Activity relative to WT” value is “++++”.
Regarding B3, the “Activity relative to WT” value was “++++”.
B4: the “Activity relative to WT” value is listed as “++++”.
Take B5: the “Activity relative to WT” value is listed as “++++”.
For B6, the “Activity relative to WT” value was “++++”.
For B7 the value was “++++”; for B8, “++++”.
On to B9, for which the “Activity relative to WT” value is on record as “++++”.
For B10 the value was “++++”; for B11, “++++”; for B12, “++++”.
Then B13, with “++++”; and B14, with “++++”.
In the case of B15, the “Activity relative to WT” value is “++++”.
Regarding B16, the “Activity relative to WT” value is recorded as “++++”.
Regarding B17, the “Activity relative to WT” value is “++++”.
For the molecule B18, the “Activity relative to WT” value is “+”.
On to B19, for which the “Activity relative to WT” value is reported as “++++”.
For B20 the value was “++++”.
Then B21, with “++++”; and B22, with “+”.

The record behind these values is patent publication US20250327097A1, “ORGANISMS PRODUCING LESS CROTONIC ACID” (Global Bioenergies, priority 2021, published 2025).
